The source of these data is patent US20050142566A1 (CHILDREN S MEDICAL CENTER, published 2005).

In this assay the target is T1, CatSper1 (UniProt Q91ZR5 1-686).
T1 sequence (looked up): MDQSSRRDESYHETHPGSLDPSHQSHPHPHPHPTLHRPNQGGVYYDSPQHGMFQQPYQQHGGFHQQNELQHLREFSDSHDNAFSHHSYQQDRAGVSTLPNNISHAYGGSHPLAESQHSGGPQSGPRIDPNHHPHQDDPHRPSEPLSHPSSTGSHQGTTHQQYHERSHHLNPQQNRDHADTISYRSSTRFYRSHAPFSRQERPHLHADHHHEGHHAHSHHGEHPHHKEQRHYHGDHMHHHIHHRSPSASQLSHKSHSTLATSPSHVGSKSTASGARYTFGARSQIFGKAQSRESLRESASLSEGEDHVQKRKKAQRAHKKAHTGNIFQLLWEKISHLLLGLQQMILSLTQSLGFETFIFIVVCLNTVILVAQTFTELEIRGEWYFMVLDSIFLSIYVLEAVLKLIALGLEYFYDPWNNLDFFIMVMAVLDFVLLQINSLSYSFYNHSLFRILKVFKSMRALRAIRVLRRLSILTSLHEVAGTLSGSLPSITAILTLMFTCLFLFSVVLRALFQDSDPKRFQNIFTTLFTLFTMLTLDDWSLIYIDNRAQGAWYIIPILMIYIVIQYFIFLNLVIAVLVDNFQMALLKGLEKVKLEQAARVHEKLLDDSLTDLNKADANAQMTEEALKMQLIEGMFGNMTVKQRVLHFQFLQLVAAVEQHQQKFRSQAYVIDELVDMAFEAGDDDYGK
Nature of the assay: co-immunoprecipitation from testis detergent extracts, immunoblot with CatSper1 antibody. As to the method:
For immunoprecipitation, samples were extracted with TBS (20 mM Tris-HCl, 150 mM NaCl, pH 7.4) containing either 1% TX-100 or 1% Zwittergent 3-14 for at least 4 hours at 4° C. The extract was centrifuged at 100,000 ×g for 30 min, and the resultant supernatant solution was incubated for 2 hours with preimmune IgG covalently bound to Protein A agarose (Seize X™, Pierce Chemical Co., Rockford, Ill.). The nonbound fraction was recovered and incubated with peptide reactive antibody (±1.5 μM peptide preincubation)/Protein A agarose overnight with rocking at 4° C. The resulting immune complexes were washed 5 times. SDS-polyacrylamide electrophoresis was according to Laemmli (1970), Nature 227:680-5. Electrophoretically separated samples were transferred to nitrocellulose membranes according to Towbin et al. (1979), Proc. Natl. Acad. Sci. USA 76:4350-4, at 50V for 2 hours, 4° C. Immnunoblots were probed in TBST/2:5% nonfat milk with CatSper2 antibody (1:5000) or CatSper1 (1:2000) antibody. After incubation with, the primary antibody, the blots were rinsed once with TBST/2.5% nonfat milk and washed with TBST (4 changes over 30 min). Blots were then incubated with secondary goat anti-rabbit IgG-HRP conjugate for 1 hour, washed with TBST (3 changes over 30 min), rinsed with TBS (3 times), and the signal detected with chemiluminescence (Pierce Chemical Co., Rockford, Ill.). […]

B1: murine CatSper2 protein (SEQ ID NO: 6) (other)
chain: MAQEQGHFQLLRADAIRSKLIDTFSLIEHLQGLSQAVPRHTLREILDPAYQQKLMSGDQEQLVRFSIKPRRMGHITHSRRLLSRLRVRCSRMPPLSLWAGWVLDSSVFSKFIISLIFLNTFVLMVEIELMESTNTALWPVKLALEVADWFILLSFIVEILLMWLASFSLFWKDAWNVFDFFVTLLSLLPELVVLLGVPAHSVWLQLLRVCRVLRSLKLFARFRQIKVILLALVRALKSMTFLLMLLLIFFYIFAVTGVYFFREYSRSTIEGLEYNMFFSDLLNSLVTVFILFTLDHWYAVLQNIWKVPESSRVFSSIYVILWLLLGSIIFRNIIIAMMVTNFQNIRSELSEEMSHLEVQYKADMFKQQIIQRRQHSESLRGTSLGKVSEDIIETSDASDDDDDDDDDDDDDDDDDDDKSDATESDGEESDSENSESENSESEKIDPEKDYAKKSYPEKSHPEKSYPEKSHPEKSYPEKSHPEKSYDEQAEAEKVKEESKEKAYPVSHSISSHGSIAADTAFLENLDWETLVHENLPGLMDMDQDDRIVWPRDSLFRYFELLEKLQYNLEERKKLQEFAVQALMSFEDK
notes: also called mouse CatSper2; 68,000 Mr protein
As for B1, the binding result is recorded as “no binding”.
